Assays:
[1] = molecular target: human recombinant receptor VEGFR-1, seven extracellular domains fused to the Fc domain of human IgG (R&D Systems, cat No 321-FL) (human) (UniProt P17948); assay: competition ELISA, residual binding of PlGF (5 ng/ml) to coated VEGFR-1-Fc, peptide 780 nM
[2] = molecular target: human recombinant receptor VEGFR-1, seven extracellular domains fused to the Fc domain of human IgG (R&D Systems, cat No 321-FL) (human) (UniProt P17948); assay: competition ELISA, residual binding of PlGF (5 ng/ml) to coated VEGFR-1-Fc, peptide 1560 nM
[3] = molecular target: human recombinant receptor VEGFR-1, seven extracellular domains fused to the Fc domain of human IgG (R&D Systems, cat No 321-FL) (human) (UniProt P17948); assay: competition ELISA, residual binding of PlGF (5 ng/ml) to coated VEGFR-1-Fc, peptide 3125 nM
[4] = molecular target: human recombinant receptor VEGFR-1, seven extracellular domains fused to the Fc domain of human IgG (R&D Systems, cat No 321-FL) (human) (UniProt P17948); assay: competition ELISA, residual binding of PlGF (5 ng/ml) to coated VEGFR-1-Fc, peptide 6250 nM
[5] = molecular target: human recombinant receptor VEGFR-1, seven extracellular domains fused to the Fc domain of human IgG (R&D Systems, cat No 321-FL) (human) (UniProt P17948); assay: competition ELISA, residual binding of PlGF (5 ng/ml) to coated VEGFR-1-Fc, peptide 12500 nM
[6] = molecular target: human recombinant receptor VEGFR-1, seven extracellular domains fused to the Fc domain of human IgG (R&D Systems, cat No 321-FL) (human) (UniProt P17948); assay: competition ELISA, residual binding of PlGF (5 ng/ml) to coated VEGFR-1-Fc, peptide 25000 nM
[7] = molecular target: human recombinant receptor VEGFR-1, seven extracellular domains fused to the Fc domain of human IgG (R&D Systems, cat No 321-FL) (human) (UniProt P17948); assay: competition ELISA, residual binding of PlGF (5 ng/ml) to coated VEGFR-1-Fc, peptide 50000 nM
[8] = molecular target: human recombinant receptor VEGFR-1, seven extracellular domains fused to the Fc domain of human IgG (R&D Systems, cat No 321-FL) (human) (UniProt P17948); assay: competition ELISA, residual binding of VEGF-A (5 ng/ml) to coated VEGFR-1-Fc, peptide 780 nM
[9] = molecular target: human recombinant receptor VEGFR-1, seven extracellular domains fused to the Fc domain of human IgG (R&D Systems, cat No 321-FL) (human) (UniProt P17948); assay: competition ELISA, residual binding of VEGF-A (5 ng/ml) to coated VEGFR-1-Fc, peptide 1560 nM
[10] = molecular target: human recombinant receptor VEGFR-1, seven extracellular domains fused to the Fc domain of human IgG (R&D Systems, cat No 321-FL) (human) (UniProt P17948); assay: competition ELISA, residual binding of VEGF-A (5 ng/ml) to coated VEGFR-1-Fc, peptide 3125 nM
[11] = molecular target: human recombinant receptor VEGFR-1, seven extracellular domains fused to the Fc domain of human IgG (R&D Systems, cat No 321-FL) (human) (UniProt P17948); assay: competition ELISA, residual binding of VEGF-A (5 ng/ml) to coated VEGFR-1-Fc, peptide 6250 nM
[12] = molecular target: human recombinant receptor VEGFR-1, seven extracellular domains fused to the Fc domain of human IgG (R&D Systems, cat No 321-FL) (human) (UniProt P17948); assay: competition ELISA, residual binding of VEGF-A (5 ng/ml) to coated VEGFR-1-Fc, peptide 12500 nM
[13] = molecular target: human recombinant receptor VEGFR-1, seven extracellular domains fused to the Fc domain of human IgG (R&D Systems, cat No 321-FL) (human) (UniProt P17948); assay: competition ELISA, residual binding of VEGF-A (5 ng/ml) to coated VEGFR-1-Fc, peptide 25000 nM
[14] = molecular target: human recombinant receptor VEGFR-1, seven extracellular domains fused to the Fc domain of human IgG (R&D Systems, cat No 321-FL) (human) (UniProt P17948); assay: competition ELISA, residual binding of VEGF-A (5 ng/ml) to coated VEGFR-1-Fc, peptide 50000 nM

Sequence of human recombinant receptor VEGFR-1, seven extracellular domains fused to the Fc domain of human IgG (R&D Systems, cat No 321-FL) (human) (P17948 27-758): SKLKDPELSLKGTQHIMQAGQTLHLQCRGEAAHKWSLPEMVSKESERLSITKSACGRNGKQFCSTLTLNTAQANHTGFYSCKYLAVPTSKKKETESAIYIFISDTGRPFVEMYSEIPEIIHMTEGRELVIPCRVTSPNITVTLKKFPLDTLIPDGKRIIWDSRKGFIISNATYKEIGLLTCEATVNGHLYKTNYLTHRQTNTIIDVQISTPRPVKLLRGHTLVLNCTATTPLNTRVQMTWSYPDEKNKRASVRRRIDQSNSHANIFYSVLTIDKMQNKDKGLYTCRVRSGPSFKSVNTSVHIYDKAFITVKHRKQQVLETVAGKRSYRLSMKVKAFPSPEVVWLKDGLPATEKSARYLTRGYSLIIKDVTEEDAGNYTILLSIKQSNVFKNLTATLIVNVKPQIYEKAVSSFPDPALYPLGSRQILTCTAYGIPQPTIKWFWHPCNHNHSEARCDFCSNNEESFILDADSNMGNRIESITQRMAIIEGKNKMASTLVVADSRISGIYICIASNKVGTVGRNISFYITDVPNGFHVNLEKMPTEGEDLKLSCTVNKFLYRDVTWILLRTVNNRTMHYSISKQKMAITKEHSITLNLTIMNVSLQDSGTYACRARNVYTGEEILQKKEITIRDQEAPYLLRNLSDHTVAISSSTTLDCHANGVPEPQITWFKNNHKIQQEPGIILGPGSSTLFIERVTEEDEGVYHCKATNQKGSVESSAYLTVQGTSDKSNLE

- binding % [1]: 98.9%
- binding % [2]: 102%
- binding % [3]: 99.5%
- binding % [4]: 93.8%
- binding % [5]: 87.2%
- binding % [6]: 88.5%
- binding % [7]: 90.2%
- binding % [8]: 100%
- binding % [9]: 103%
- binding % [10]: 95.2%
- binding % [11]: 91.4%
- binding % [12]: 100%
- binding % [13]: 93.4%
- binding % [14]: 87.9%
Substance: control peptide (PC), (S-Ser)-(S-Ala)-(S-Cha) tripeptide with a tetrameric structure identical to the structure of the iVR1 peptides

Reference: US20220054583A1 (ANBITION S R L, published 2022)
